Reference: patent publication US20170044545

Target: Autotaxin (ENPP2, NPP2) (Homo sapiens) (UniProt Q13822)
Experiment: inhibition
Settings: 2'-F pyrimidines, 2'-OH purines

| Sequence | IC50 [nM] |
| --- | --- |
| GUACGAAGACGCAUCUCACNNNNNNNNNNNNNNNNNNNNNNNNNNNNNNNNNNNNNNNNGUUCCAUGUCCUGUUGCCACCC [40N RNA pool] | > 1000 |
| CGGAUACGUCUCACUUCGUCNNNNNNNNNNNNNNNNNNNNNNNNNNNNNNCAGAGCGUUUAGAGUGCGGUCCC [30N RNA pool] | > 1000 |
